Data from the supplement of paper PMC10567573.

B1: SNX8 (parent)
chain: VVLKLFLSFSGSDVQNKLKESAQC

Variants of: B1
Assay: protein stability index of a GFP-peptide fusion (GPS, HEK-293T) (PSI 1-6); higher = more stable
Conditions: c terminus: a fixed tail appended
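Further: lentivirally expressed fusions sorted by FACS into six bins by GFP to DsRed ratio, PSI derived from sequencing read proportions per bin multiplied by bin number.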

In order of falling protein stability index:
1. VVLKLFLSFSGSDVQNKLKESAQL [C24L]  5.49
2. VVLKLFLSQSGSDVQNKLKESAQC [F9Q]  4.89
3. VVLKLFLSFSGSDVQNKLKESDQC [A22D]  4.82
4. VVLKLFLSFSGSDSQNKLKESAQC [V14S]  4.53
5. VVLKLFLSFSGSDVQQKLKESAQC [N16Q]  4.03
6. VVLKLFLSFSGSDVQNKLKESAQF [C24F]  4.02
7. VVLKLFLSFSGSDVQNKLKESEQC [A22E]  3.99
8. VVLKLFLSFSRSDVQNKLKESAQC [G11R]  3.97
9. VVVKLFLSFSGSDVQNKLKESAQC [L3V]  3.77
10. VVLKLFVSFSGSDVQNKLKESAQC [L7V]  3.66
11. VVLKLFLSFSGSDVQWKLKESAQC [N16W]  3.64
12. VVLKLFLSFSGSHVQNKLKESAQC [D13H]  3.62
13. VVLKLFLSFSFSDVQNKLKESAQC [G11F]  3.55
14. VVLKLFLSVSGSDVQNKLKESAQC [F9V]  3.52
15. VVLKLFLSISGSDVQNKLKESAQC [F9I]  3.38
16. VVLKLFLSFSGSDVQNKLKESAQS [C24S]  3.35
17. VVLKLFLSFSGSQVQNKLKESAQC [D13Q]  3.33
18. VVLKLFLSFSGSDVQNKLKESALC [Q23L]  3.31
19. VVLKLFLSFSGTDVQNKLKESAQC [S12T]  3.29
20. VVLKLFLSFSGSDVQNKLKESAIC [Q23I]  3.23
21. VVLKLFLSFSGSDVQNKLKESFQC [A22F]  3.23
22. VVHKLFLSFSGSDVQNKLKESAQC [L3H]  3.17
23. VVLKLFLSYSGSDVQNKLKESAQC [F9Y]  3.17
24. VVLKLFLSFSGKDVQNKLKESAQC [S12K]  3.15
25. VVLKLFLSFSGSDVQNKLKESACC [Q23C]  3.1
26. VVLKLFLSFSLSDVQNKLKESAQC [G11L]  3.09
27. VVLKLFLSFSGSDVQNKLKESAAC [Q23A]  3.04
28. VVLKLFHSFSGSDVQNKLKESAQC [L7H]  3.04
29. VVLKLFLSASGSDVQNKLKESAQC [F9A]  3
30. VVLKLFLSFSGSDVQNKLKESAQV [C24V]  2.91
31. VVPKLFLSFSGSDVQNKLKESAQC [L3P]  2.87
32. VVLKLFLSFSGSDVQRKLKESAQC [N16R]  2.84
33. VVLKLFLSFSGSDVQNKLKESARC [Q23R]  2.8
34. VVLKLFLSFSGSDVQNKLKEWAQC [S21W]  2.66
35. VVLKLFLSFSGSDVQNKLKEYAQC [S21Y]  2.66
36. VVLKLFLSFSGSDVQIKLKESAQC [N16I]  2.64
37. VVLKLFLSPSGSDVQNKLKESAQC [F9P]  2.64
38. VVLKLFLSFSGSDYQNKLKESAQC [V14Y]  2.62
39. VVLKLFLSFSHSDVQNKLKESAQC [G11H]  2.62
40. VVLKLFLSFSGIDVQNKLKESAQC [S12I]  2.62
41. VVLKLFLSFSGSDVQNKLKESAKC [Q23K]  2.59
42. VVLKLFESFSGSDVQNKLKESAQC [L7E]  2.56
43. VVLKLFLSFSGSDVQNKLKENAQC [S21N]  2.55
44. VVLKLFLSFSGSDTQNKLKESAQC [V14T]  2.53
45. VVLKLFLSFSGSDVQNKLKESAYC [Q23Y]  2.52
46. VVKKLFLSFSGSDVQNKLKESAQC [L3K]  2.5
47. VVLKLFLSFSGSDVQNKLKESATC [Q23T]  2.48
48. VVLKLFLSWSGSDVQNKLKESAQC [F9W]  2.48
49. VVLKLFLSFSGSDVQNKLKEVAQC [S21V]  2.46
50. VVDKLFLSFSGSDVQNKLKESAQC [L3D]  2.44
51. VVLKLFLSRSGSDVQNKLKESAQC [F9R]  2.42
52. VVLKLFLSFSYSDVQNKLKESAQC [G11Y]  2.42
53. VVCKLFLSFSGSDVQNKLKESAQC [L3C]  2.4
54. VVLKLFFSFSGSDVQNKLKESAQC [L7F]  2.35
55. VVLKLFPSFSGSDVQNKLKESAQC [L7P]  2.34
56. VVLKLFLSFSASDVQNKLKESAQC [G11A]  2.33
57. VVLKLFLSFSGSDDQNKLKESAQC [V14D]  2.3
58. VVLKLFLSFSGSTVQNKLKESAQC [D13T]  2.28
59. VVLKLFLSFSGSDVQNKLKEKAQC [S21K]  2.25
60. VVNKLFLSFSGSDVQNKLKESAQC [L3N]  2.21
61. VVLKLFLSFSGSDVQKKLKESAQC [N16K]  2.2
62. VVLKLFLSFSGADVQNKLKESAQC [S12A]  2.2
63. VVLKLFLSFSGSDVQNKLKESKQC [A22K]  2.18
64. VVLKLFLSFSGSDVQNKLKESAQH [C24H]  2.17
65. VVLKLFLSFSISDVQNKLKESAQC [G11I]  2.14
66. VVLKLFLSFSDSDVQNKLKESAQC [G11D]  2.11
67. VVLKLFLSFSGSCVQNKLKESAQC [D13C]  2.1
68. VVLKLFLSFSGSFVQNKLKESAQC [D13F]  2.07
69. VVLKLFLSFSGSDVQFKLKESAQC [N16F]  2.04
70. VVLKLFLSFSGSDVQAKLKESAQC [N16A]  2.02
71. VVYKLFLSFSGSDVQNKLKESAQC [L3Y]  1.94
72. VVLKLFLSFSGSDEQNKLKESAQC [V14E]  1.91
73. VVLKLFLSFSGSDVQNKLKESAQD [C24D]  1.9
74. VVLKLFLSFSGHDVQNKLKESAQC [S12H]  1.9
75. VVLKLFLSFSGSDVQNKLKESAQW [C24W]  1.84
76. VVLKLFKSFSGSDVQNKLKESAQC [L7K]  1.84
77. VVLKLFLSFSGSDKQNKLKESAQC [V14K]  1.82
78. VVGKLFLSFSGSDVQNKLKESAQC [L3G]  1.78
79. VVLKLFLSFSGSDVQNKLKESTQC [A22T]  1.76
80. VVLKLFLSFSGSDVQHKLKESAQC [N16H]  1.75
81. VVLKLFLSFSCSDVQNKLKESAQC [G11C]  1.74
82. VVLKLFDSFSGSDVQNKLKESAQC [L7D]  1.73
83. VVLKLFLSKSGSDVQNKLKESAQC [F9K]  1.72
84. VVLKLFLSFSGSDVQNKLKESAFC [Q23F]  1.71
85. VVSKLFLSFSGSDVQNKLKESAQC [L3S]  1.66
86. VVLKLFQSFSGSDVQNKLKESAQC [L7Q]  1.63
87. VVLKLFLSFSGSDHQNKLKESAQC [V14H]  1.59
88. VVLKLFLSFSGSDVQNKLKEDAQC [S21D]  1.56
89. VVLKLFGSFSGSDVQNKLKESAQC [L7G]  1.43
90. VVLKLFLSFSGLDVQNKLKESAQC [S12L]  1.37
91. VVLKLFLSFSGSDVQGKLKESAQC [N16G]  1.35
92. VVTKLFLSFSGSDVQNKLKESAQC [L3T]  1.2
93. VVLKLFLSESGSDVQNKLKESAQC [F9E]  1.11
94. VVLKLFNSFSGSDVQNKLKESAQC [L7N]  1.09
